Measurements: PMC5595295 (Acta Pharmaceutica Sinica. B, 2017)

B1: hA3G W127A-EYFP (natural protein, human, UniProt Q9HC16 1-384, looked up)
chain: MKPHFRNTVERMYRDTFSYNFYNRPILSRRNTVWLCYEVKTKGPSRPPLDAKIFRGQVYSELKYHPEMRFFHWFSKWRKLHRDQEYEVTWYISWSPCTKCTRDMATFLAEDPKVTLTIFVARLYYFADPDYQEALRSLCQKRDGPRATMKIMNYDEFQHCWSKFVYSQRELFEPWNNLPKYYILLHIMLGEILRHSMDPPTFTFNFNNEPWVRGRHETYLCYEVERMHNDTWVLLNQRRGFLCNQAPHKHGFLEGRHAELCFLDVIPFWKLDLDQDYRVTCFTSWSPCFSCAQEMAKFISKNKHVSLCIFTARIYDDQGRCQEGLRTLAEAGAKISIMTYSEFKHCWDTFVDHQGCPFQPWDGLDEHSQDLSGRLRAILQNQEN
B2: hA3G Y124A-EYFP (natural protein, human, UniProt Q9HC16 1-384, looked up)
chain: MKPHFRNTVERMYRDTFSYNFYNRPILSRRNTVWLCYEVKTKGPSRPPLDAKIFRGQVYSELKYHPEMRFFHWFSKWRKLHRDQEYEVTWYISWSPCTKCTRDMATFLAEDPKVTLTIFVARLAYFWDPDYQEALRSLCQKRDGPRATMKIMNYDEFQHCWSKFVYSQRELFEPWNNLPKYYILLHIMLGEILRHSMDPPTFTFNFNNEPWVRGRHETYLCYEVERMHNDTWVLLNQRRGFLCNQAPHKHGFLEGRHAELCFLDVIPFWKLDLDQDYRVTCFTSWSPCFSCAQEMAKFISKNKHVSLCIFTARIYDDQGRCQEGLRTLAEAGAKISIMTYSEFKHCWDTFVDHQGCPFQPWDGLDEHSQDLSGRLRAILQNQEN

Biological target: hA3G-HA (human, UniProt Q9HC16 1-384)
Assay: co-IP

Binder | percent inhibition of binding to wild type hA3G (co-IP, band quantification) [%]
B1 | ~80
B2 | < 50
